These results are taken from US20220267422A1 (PHAROSGEN, published 2022).

Assay [1] has as its target doppel (Prnd) recombinant protein immobilized on the SPR sensor chip. The assay is described as follows: SPR, BIAcore T100, recombinant protein immobilized on chip.
Experimental: Affinity measurements of anti-doppel monoclonal antibodies produced by the clones described herein with Prnp and Prnd (doppel) were performed by the surface plasmon resonance on a BIAcore T100 (GE Healthcare). Using the standard EDAC-NHS coupling method, recombinant proteins were immobilized at a density of 4000-7000 onto a sensor chip (GE Healthcare). Measurements were performed at a flow rate of 20 μL/min, and 50 mM NaOH was used to regenerate the chip surface after each cycle of analysis. Each concentration was analyzed in duplicate. Kinetic analysis of the data obtained was performed using BIAcore T100 evaluation software (GE Healthcare).
The target in assay [2] is T1, human doppel on human tumor endothelial cells (human, UniProt Q9UKY0 26-152).
T1 construct: whole, on cells; also called PRND; hPRND
The assay is described as follows: flow cytometry on human tumor endothelial cells, cancer cells and doppel knock-down cells.

Assay [3] addresses T2, Doppel on HCT116 cells, HUVEC and Dpl k/d HUVEC (human, UniProt Q9UKY0).
T2 construct: endogenous, on the surface of HCT116 cells, HUVEC and doppel knock-down HUVEC; also called PRND
The assay is described as follows: flow cytometry, '% Doppel Ab binding cell' on HCT116, HUVEC and doppel knock-down HUVEC (24h, 48h); no control antibody and no concentration shown.

The target of assay [4] is T3, mPRND.
T3 construct: also called Mouse PRND; mouse doppel, recombinant, C-terminal His tag
T3 single chain: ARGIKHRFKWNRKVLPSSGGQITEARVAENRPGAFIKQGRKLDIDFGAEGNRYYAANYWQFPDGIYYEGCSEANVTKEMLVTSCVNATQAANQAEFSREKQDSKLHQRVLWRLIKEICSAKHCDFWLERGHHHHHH
The assay is described as follows: ELISA, […], antibody 0-100 nM; […] (nM)'; […].

For assay [5], the target named is T1, human doppel on human tumor endothelial …. The assay is described as follows: flow cytometry on HCTEC (human colonic tumor endothelial cells), fluorescent secondary antibody; no control bar and no antibody concentration shown.
For assay [6], the target named is T3, mPRND. The assay is described as follows: ELISA, […], antibody 0-100 nM; […] (nM)'.
Assay [7] concerns the target T3, mPRND. The assay is described as follows: ELISA, […], antibody 0-100 nM; […] (nM)'.

B1: Human monoclonal antibody A12 (antibody, V domains shown)
VH: not shown
VL: DIQMTQSPSSLSASVGDRVTITCRASQSIGSYLNWYQQKPGKAPKLLIYAASTLQSGVPSRFSGSGSGTDFTLTISSLQPEDFATYYCQQSYSFPWTFGQGTKVEIKR
Turning to B1, in assay [1], the Kd was 9.2 nM. Moreover, the binding result in assay [2] and in assay [3] was “binds” each time.

B2: Human monoclonal antibody B2 (antibody, V domains shown)
VH: not shown
VL: DIQMTQSPSSLSASVGDRVTITCRASQSISNYLNWYQQKPGKAPKLLIYAASRLQSGVPSRFSGSGSGTDFTLTISSLQPEDFATYYCQQSYSFPWTFGQGTKVEIKR
Consider B2, for which the equilibrium dissociation constant (Kd) in assay [1] was found to be 7.99 nM. The binding result in assay [2] and in assay [3] was “binds” in each case.

B3: Human monoclonal antibody E9 (antibody, human IgG1, kappa, V domains shown)
VH: QVQLVQSGAEVKKPGSSVKVSCKASGGTFSSYYMHWVRQAPGQGLEWMGRISPGGGGTIYAQKFQGRVTITADESTSTAYMELSSLRSEDTAVYYCARAQSEGLSYYFDVWGQGTLVTVSS
VL: DIQMTQSPSSLSASVGDRVTITCRASQSIRNYLNWYQQKPGKAPKLLIYAASNLQSGVPSRFSGSGSGTDFTLTISSLQPEDFATYYCQQSSSFPLTFGQGTKVEIKR
With B3, the Kd in assay [1] turned out to be 4.41 nM.

B4: murine monoclonal antibody produced by hybridoma cell line clone 7G3 (antibody, V domains shown)
VH: EIQLQQTGPELVKPGASVKISCKASGYSFTDYIMLWVKQSHGKSLEWIGNINPYYGSTSYNLKFKGKATLTVDKSSSTAYMQLNSLTSEDSAVYYCARRNYYGNYDAMDYWGQGTSVTVSS
VL: QIVLTQSPAIMSASLGERVTMTCTASSSVSSSYLHWYQQKPGSSPKLWIYSTSNLASGVPARFSGSGSGTSYSLTISSMEAEDTATYYCHQYHRSPLTFGAGTKLELK
notes: also called hPrnd #7G3; KCLRF-BP-00500
For the molecule B4, the Kd with mPRND [4] is 25.9 nM; in assay [1], 10.6 nM. Besides, the binding result in assay [3] and in assay [5] was “binds” in each case.

B5: murine monoclonal antibody produced by hybridoma cell line clone 2E9 (antibody, V domains shown)
VH: not shown
VL: DVQMTQTTSSLSASLGDRVTISCSASRGISNYLNWYQQKPDGTVKLLIYYTSSLHSGVPPRFSGSGSGTDYSLTISNLEPEDIATYYCQQYSKLPSTFGGGTKVEIK
notes: also called hPrnd #2E9; KCLRF-BP-00493
Take B5: the Kd in assay [1] came to 4.05 nM. Also, in assay [5], the binding result was “binds”.

B6: murine monoclonal antibody produced by hybridoma cell line clone 4H7 (antibody, V domains shown)
VH: DVQLQESGPDLVKPSQSLSLTCTVTGYSITSGYSWHWIRQFPGNKLEWMGYIHYSGNTNYNPSLKSRISITRDTSKNQFFLQLNSVTTEDTATYSCAMRTYYYGPLDYWGQGTTLTVSS
VL: not shown
notes: also called hPrnd #4H7; KCLRF-BP-00496
Consider B6, for which the Kd is 0.868 nM in the assay with mPRND [6] and 0.0287 nM in assay [1]. The binding result in assay [5] is “binds”.

B7: murine monoclonal antibody produced by hybridoma cell line clone 7A11 (antibody, V domains shown)
VH: QVQLQQPGAELVRPGASVKLSCKASGYTFTSYWINWVKQRPGQGLEWIGNIYPSDSYTNYNQKFKDKATLTVDKSSSTAYMQLSSPTSEDSAVYYCTRSMITWGQGTTLTVSS
VL: DVLMTQTPLSLPVSLGDQASISCRSSQSIVHSNGNTYLEWYLQKPGQSPKVLIYKVSNRFSGVPDRFSGSGSGTDFTLKINRVEAEDLGVYYCFQGSHVPLTFGAGTKLELK
notes: also called hPrnd #7A11; KCLRF-BP-00498
As to B7, the dissociation constant Kd is 0.876 nM with mPRND [7] and 0.253 nM in assay [1].

B8: murine monoclonal antibody produced by hybridoma cell line clone 2B6 (antibody, V domains shown)
VH: QVQLQQSGAELVRPGVSVKLSCKFSGFTFTDYAMHWVRQSHAKSLAWIGVISSYYGDASYNQKFTGKATMTVDKSSSTAYMELARLTSEDSAIYYCARRLRGAMDYWGQGTSVTVSS
VL: DIVMTQSQKFMSTSVGDRVSVTCKASQNVDANVAWYQQKPGQSPKALIYSASYRYSGVPYRFTGSGSGTDFTLTISNVQSADLAEYFCQQYNSYPFTFGSGTKLELK
notes: also called hPrnd #2B6; KCLRF-BP-00490
Turning to B8, the Kd with mPRND [7] was determined as 6.52 nM; in assay [1] it was 0.292 nM. The binding result in assay [3] and in assay [5] was “binds” throughout.

B9: murine monoclonal antibody produced by hybridoma cell line clone 2C10 (antibody, V domains shown)
VH: EVQLQESGPSLVKPSQTLSLTCSVTGDSITSGYWNWIRKFPGNKLEYMGYIRYSGSAYYNPSLKSRISITRDTSKNQYYLQLNSVTTEDTATYYCARYPYYGSYWYFDVWGAGTTVTVSS
VL: DVQITQSPSYLAASPGETITLNCRASKSISKYLAWYQEKPGKTNKLLIYSGSTLQSGIPSRFSGSGSGSDFTLTISSLEPEDFAMYYCQQHSEYPWTFGGGTKLEIK
notes: also called hPrnd #2C10; KCLRF-BP-00491
Turning to B9, the Kd in assay [1] was 8.76 nM. Also, the binding result in assay [2] and in assay [3] was “binds” in each case.
